± gives the uncertainty stated by the source.
Test: self-splicing fitness, log relative to wild type (ln ratio); higher = more splicing; Tetrahymena group I intron in knt gene, E. coli kanamycin selection, DiMSum; sequences stand for … in CUCUCU…GGAGGGAAAAGUUAUCAGGCAUGCACCUGGUAGCUAGUCUUUAAACCAAUAGAUUGCAUCGGUUUAAAAGGCAAGACCGUCAAAUUGCGGGAAAGGGGUCAACAGCCGUUCAGUACCAAGUCUCAGGGGAAACUUUGAGAUGGCCUUGCAAAGGGUAUGGUAAUAAGCUGACGGACAUGGUCCUAACCACGCAGCCAAGUCCUAAGUCAACAGAUCUUCUGUUGAUAUGGAUGCAGUUCACAGACUAAAUGUCGGUCGGGGAAGAUGUAUUCUUCUCAUAAGAUAUAGUCGGACCUCUCCUUAAUGGGAGCUAGCGGAUGAAGUGAUGCAACACUGGAGCCGCUGGGAACUAAUUUGUAUGCGAAAGUAUAUUGAUUAGUUUUGGAGUACUCGUGGUCG
Method in brief: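 Library with all eight P1ex-region intron nucleotides randomised, intron inside the knt kanamycin-resistance gene on pET-22b(+), in E. coli BL21(DE3). Cells grew overnight at 37°C or 30°C on LB agar with or without 25 μg/mL kanamycin (plus 100 μg/mL carbenicillin, 50 μM IPTG, 0.2% rhamnose), in six replicate transformations. Pooled colonies were amplicon-sequenced on Illumina HiSeq 2500. DiMSum fitness is the error-weighted combination of wild-type-normalised replicate fold changes, kanamycin versus none.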

UUUAAGCAAUAUUACGGAUC
self-splicing fitness (ln) (30 °C): -1.33 ± 0.43

UAUUAGCAAUAUUACGCUAU
self-splicing fitness (ln) (37 °C): -2.14 ± 0.29

UCACAGCAAUAUUACGUGGG
self-splicing fitness (ln) (30 °C): -3.34 ± 0.12 | self-splicing fitness (ln) (37 °C): -2.68 ± 0.12

CCUCAGCAAUAUUACGUCUG
self-splicing fitness (ln) (30 °C): -3.75 ± 0.23 | self-splicing fitness (ln) (37 °C): -1.79 ± 0.19

CUCAAGCAAUAUUACGGCAG
self-splicing fitness (ln) (30 °C): -2.26 ± 0.068 | self-splicing fitness (ln) (37 °C): -0.745 ± 0.092

ACAAAGCAAUAUUACGUGCG
self-splicing fitness (ln) (30 °C): -1.07 ± 0.066 | self-splicing fitness (ln) (37 °C): -0.382 ± 0.076

ACGCAGCAAUAUUACGAGUG
self-splicing fitness (ln) (30 °C): -2.14 ± 0.052 | self-splicing fitness (ln) (37 °C): -1.32 ± 0.062

UUUGAGCAAUAUUACGCCGA
self-splicing fitness (ln) (30 °C): -2.3 ± 0.42 | self-splicing fitness (ln) (37 °C): -1.61 ± 0.41

CGGUAGCAAUAUUACGGCAG
self-splicing fitness (ln) (30 °C): -0.164 ± 0.13 | self-splicing fitness (ln) (37 °C): 0.767 ± 0.16

UGUCAGCAAUAUUACGAAGC
self-splicing fitness (ln) (30 °C): -3.79 ± 0.18 | self-splicing fitness (ln) (37 °C): -0.785 ± 0.17

UAAGAGCAAUAUUACGGACA
self-splicing fitness (ln) (30 °C): -1.78 ± 0.25 | self-splicing fitness (ln) (37 °C): -2.31 ± 0.35

GCAAAGCAAUAUUACGCUGA
self-splicing fitness (ln) (30 °C): -2.59 ± 0.12 | self-splicing fitness (ln) (37 °C): -2.04 ± 0.11

UCACAGCAAUAUUACGCGCU
self-splicing fitness (ln) (30 °C): -3.85 ± 0.21 | self-splicing fitness (ln) (37 °C): -1.78 ± 0.16

UCGAAGCAAUAUUACGCACA
self-splicing fitness (ln) (30 °C): -1.23 ± 0.13 | self-splicing fitness (ln) (37 °C): -0.472 ± 0.16

AAGGAGCAAUAUUACGAAUA
self-splicing fitness (ln) (30 °C): -2.18 ± 0.27 | self-splicing fitness (ln) (37 °C): -2.77 ± 0.38

CCUGAGCAAUAUUACGGGUU
self-splicing fitness (ln) (30 °C): -4.27 ± 0.34 | self-splicing fitness (ln) (37 °C): -2.56 ± 0.31

CGACAGCAAUAUUACGUAGC
self-splicing fitness (ln) (30 °C): -3.61 ± 0.18 | self-splicing fitness (ln) (37 °C): -2.21 ± 0.16

AACUAGCAAUAUUACGACAU
self-splicing fitness (ln) (30 °C): -0.187 ± 0.011 | self-splicing fitness (ln) (37 °C): 0.0705 ± 0.032

GUUAAGCAAUAUUACGAUCC
self-splicing fitness (ln) (30 °C): -1.62 ± 0.13 | self-splicing fitness (ln) (37 °C): 0.0862 ± 0.16

ACUCAGCAAUAUUACGGACG
self-splicing fitness (ln) (30 °C): -0.251 ± 0.069 | self-splicing fitness (ln) (37 °C): -0.156 ± 0.09

CUCUAGCAAUAUUACGACUA
self-splicing fitness (ln) (37 °C): -1.71 ± 0.28

AGUCAGCAAUAUUACGAUGU
self-splicing fitness (ln) (30 °C): 0.202 ± 0.062 | self-splicing fitness (ln) (37 °C): 0.34 ± 0.087

GCUCAGCAAUAUUACGAUUU
self-splicing fitness (ln) (30 °C): -0.259 ± 0.056 | self-splicing fitness (ln) (37 °C): 0.00309 ± 0.075

UAGGAGCAAUAUUACGGUAG
self-splicing fitness (ln) (30 °C): -3.52 ± 0.17 | self-splicing fitness (ln) (37 °C): -1.56 ± 0.13

GUUGAGCAAUAUUACGAGAC
self-splicing fitness (ln) (37 °C): -0.388 ± 0.31

UUCCAGCAAUAUUACGAUAA
self-splicing fitness (ln) (30 °C): 0.0765 ± 0.06 | self-splicing fitness (ln) (37 °C): 0.459 ± 0.071

AUUCAGCAAUAUUACGCCUU
self-splicing fitness (ln) (30 °C): -0.723 ± 0.079 | self-splicing fitness (ln) (37 °C): -0.133 ± 0.096

UGCGAGCAAUAUUACGGGUU
self-splicing fitness (ln) (30 °C): -3.38 ± 0.16 | self-splicing fitness (ln) (37 °C): -2.51 ± 0.16

CAUAAGCAAUAUUACGCAAG
self-splicing fitness (ln) (30 °C): -2.14 ± 0.11 | self-splicing fitness (ln) (37 °C): -0.944 ± 0.13

CUCUAGCAAUAUUACGCGUC
self-splicing fitness (ln) (30 °C): -3.9 ± 0.47 | self-splicing fitness (ln) (37 °C): -2.85 ± 0.24

AGGUAGCAAUAUUACGUUCA
self-splicing fitness (ln) (30 °C): -0.556 ± 0.014 | self-splicing fitness (ln) (37 °C): -0.256 ± 0.033

UCUCAGCAAUAUUACGCUCG
self-splicing fitness (ln) (30 °C): -3.93 ± 0.25 | self-splicing fitness (ln) (37 °C): -2 ± 0.19

CUCUAGCAAUAUUACGCCUG
self-splicing fitness (ln) (30 °C): -2.33 ± 0.36

UGGUAGCAAUAUUACGUACU
self-splicing fitness (ln) (30 °C): 0.209 ± 0.34

CGAUAGCAAUAUUACGGUGA
self-splicing fitness (ln) (30 °C): -2.74 ± 0.2 | self-splicing fitness (ln) (37 °C): -1.94 ± 0.19

AAGGAGCAAUAUUACGCAGU
self-splicing fitness (ln) (30 °C): -3.65 ± 0.43 | self-splicing fitness (ln) (37 °C): -1.38 ± 0.19

CGCGAGCAAUAUUACGGACU
self-splicing fitness (ln) (30 °C): -1.82 ± 0.3 | self-splicing fitness (ln) (37 °C): -0.107 ± 0.26

CGAAAGCAAUAUUACGCAUU
self-splicing fitness (ln) (30 °C): -4.46 ± 0.42 | self-splicing fitness (ln) (37 °C): -2.94 ± 0.37

CUUAAGCAAUAUUACGGGAA
self-splicing fitness (ln) (30 °C): -2.9 ± 0.3 | self-splicing fitness (ln) (37 °C): -2.85 ± 0.32

GGUAAGCAAUAUUACGCUAU
self-splicing fitness (ln) (30 °C): -2.53 ± 0.17 | self-splicing fitness (ln) (37 °C): -2.05 ± 0.27

From the supplement of paper PMC7877785
